Molecular target: T1, human PCSK9 (human, UniProt Q8NBP7 31-692)
T1 construct: Soluble analyte in the ForteBio assay; also called human proprotein convertase subtilisin/kexin type 9
Assay: ForteBio BLI, biotinylated antibody on streptavidin probes, PCSK9 in solution
Protocol: ForteBio affinity assays were implemented according to the prior art. […] After the buffer exchange, the protein content was measured by the absorbance at 280 nm, and the concentration was adjusted to 2 mg/mL. 2 mg of Sulfo-NHS-Biotin was equilibrated to room temperature and added to […] of ultrapure water to give a 10 mM Biotin stock solution. 1 mL of 2 mg/mL JS002 and evolocumab were transferred to a new EP tube, and 8 μL of biotin stock solution was added according to a ratio of protein:biotin=1:6. The mixture was well mixed and incubated at room temperature for 1-2 h. […] After the buffer exchange, the protein content was measured by the absorbance at 280 nm, and the concentration was adjusted to 1-2 mg/mL. The biotinylated protein was aliquoted in tubes at 0.1 mL per tube, and was stored at −80° C. with no more than 1 freeze-thaw. […] The affinity constant was calculated by the formula=koff/kₒₙ.

B1: JS002 (antibody, human IgG4 S228P, kappa, V domains shown)
VH: QVQLQESGPGLVKPSQTLSLTCTVSGFSISSYGIHWIRQSPGKGLEWIGVIWRGGITDYNAPFMSRVTISKDNSKNQVSFKLSSVTAADTAVYYCANHRDWGQGTLVTVSS
VL: DIQMTQSPSSLSASVGDRVTITCQASQDINKYIDWYQHKPGKAPKLLIHYASTLQPGVPSRFSGSGSGRDYTFTISSLQPEDIATYYCLQYDDLWTFGQGTKVEIKR
notes: Full-length humanized antibody; In the ForteBio assay it was biotinylated with Sulfo-NHS-Biotin (protein:biotin 1:6) and held on streptavidin probes; Tested from various liquid formulations (no. 20, 28-31); also called recombinant humanized anti-PCSK9 monoclonal antibody; anti-PCSK9 antibody
- Kd: 0.0215 nM
- koff: 1.3e-06 s⁻¹
- kon: 60200 M⁻¹ s⁻¹

B2: evolocumab (antibody, V domains shown)
VH: QVQLVQSGAEVKKPGASVKVSCKASGYTLTSYGISWVRQAPGQGLEWMGWVSFYNGNTNYAQKLQGRGTMTTDPSTSTAYMELRSLRSDDTAVYYCARGYGMDVWGQGTTVTVSS
VL: QSALTQPASVSGSPGQSITISCTGTSSDVGGYNSVSWYQQHPGKAPKLMIYEVSNRPSGVSNRFSGSKSGNTASLTISGLQAEDEADYYCNSYTSTSMVFGGGTKLTVL
- Kd: 0.651 nM
- koff: 3.21e-05 s⁻¹
- kon: 49200 M⁻¹ s⁻¹

Source: US20210393777A1 (SHANGHAI JUNSHI BIOSCIENCES, published 2021)
